In the RNAGym collection of RNA variant scans (doi:10.1073/pnas.2313332121):

B1: TPR t1 (parent)
chain: GACCAAUCUGCCCUCAGAGCUCGAGAACAUCUUCGGAUGCAGAGGAGGCAGGCUUCGGUGGCGCGAUAGCGCCAACGUCCUCAACCUCCAAUGCAUCCCACCACAUGAUGAUGCCUGAAGAGCCUUGGUUUUUUG

Variants of: B1
Assay: polymerase ribozyme fitness, log enrichment relative to wild type (log ratio); higher = more active; in vitro selection for triplet polymerase activity
In short: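 Fitness compares each genotype's enrichment to that of the wild type on a logarithmic scale, averaging replicates with inverse-variance weights. The logarithm is base 2. Enrichment came from Illumina sequencing of input and output libraries after one triplicate round of in vitro selection, which included frozen incubation at −7 °C, of PCR-built, transcribed mutant libraries of each subunit of a heterodimeric triplet polymerase ribozyme. Only genotypes with ≥10 input reads and ≥1 read per output were kept.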

First: C53A U130G
Second: C53A U130C
The “polymerase ribozyme fitness (log ratio)” value of the first is lower: -0.264 for the first, 0.592 for the second.

First: C53G C72G C123U
Second: C53G U78C U81A C101A G120C A121C
The “polymerase ribozyme fitness (log ratio)” value of the first is higher: 0.978 for the first, -2.66 for the second.

First: C53G G61A
Second: C53G G117A
The “polymerase ribozyme fitness (log ratio)” value of the first is lower: -1.75 for the first, -1.45 for the second.

Compared with C53G C64U A118G C123U, C53G C102U U112A G120U is lower in “polymerase ribozyme fitness (log ratio)” value: -1.6 for the first, -4.93 for the second.

Going from C53A G63A C115U to C53G A90C G117U, the “polymerase ribozyme fitness (log ratio)” value rises from -3.96 to -3.56.

First: C53G G120C U125C
Second: C53G G63C G127C
The “polymerase ribozyme fitness (log ratio)” value of the first is higher: 0.247 for the first, -1.19 for the second.

Compared with C53G C97A, C53U A118U G120C U133G is higher in “polymerase ribozyme fitness (log ratio)” value: -5.66 for the first, 0.183 for the second.

Going from C53A G71U C85A to C53A U78A, the “polymerase ribozyme fitness (log ratio)” value rises from -0.672 to 0.532.

Compared with C53G U81G, C53G G71A G93C is lower in “polymerase ribozyme fitness (log ratio)” value: -1.16 for the first, -1.51 for the second.

Going from C53G U81C U106A to C53G A74G, the “polymerase ribozyme fitness (log ratio)” value rises from -4.71 to -1.52.

First: C53G C94U
Second: C53A U59C
The “polymerase ribozyme fitness (log ratio)” value of the first is lower: -0.473 for the first, 0.311 for the second.

C53G G128C and C53U C76U G128A are within 0.2 log units of each other in “polymerase ribozyme fitness (log ratio)” value: -2.03 for the first, -2.11 for the second.

Going from C53G A90C to C53A G69U C88G U112A G122A U133C, the “polymerase ribozyme fitness (log ratio)” value rises from -2.02 to 1.96.

Going from C53G G69A C115A U116A to C53G A105C, the “polymerase ribozyme fitness (log ratio)” value rises from -5.69 to -2.81.

Going from C53A C89U U106C to C53G U78C C114U U132A, the “polymerase ribozyme fitness (log ratio)” value falls from -0.0062 to -2.19.

Compared with C53A C124G, C53U C73U C79A G127C is lower in “polymerase ribozyme fitness (log ratio)” value: 0.737 for the first, -1.71 for the second.

First: C53G C79U
Second: C53G G63A C115G U116A U131G
The “polymerase ribozyme fitness (log ratio)” value of the first is higher: -1.64 for the first, -7.22 for the second.

Compared with C53U C64U A83G, C53A G120U G127A is higher in “polymerase ribozyme fitness (log ratio)” value: -0.811 for the first, -0.445 for the second.

Compared with C53A U55G, C53G G63C G93C is lower in “polymerase ribozyme fitness (log ratio)” value: 0.151 for the first, -0.994 for the second.

Going from C53U C62U U125A G128A U130A to C53G G61U C70U, the “polymerase ribozyme fitness (log ratio)” value rises from -3.39 to -0.621.

Going from C53A G60A U78C to C53G U112G G113C, the “polymerase ribozyme fitness (log ratio)” value falls from 0.136 to -5.93.

Compared with C53G G61C C82U G120A, C53U C62U U106C G117U is lower in “polymerase ribozyme fitness (log ratio)” value: 0.391 for the first, -4.61 for the second.

Going from C53A C94A U112C to C53A G71A C115U, the “polymerase ribozyme fitness (log ratio)” value falls from 1.14 to -3.94.

Going from C53U C70U A74G G113C U133A to C53U C62G C64U C115A, the “polymerase ribozyme fitness (log ratio)” value rises from -2.94 to -2.42.

Compared with C53U A84U U126C, C53G C64U is higher in “polymerase ribozyme fitness (log ratio)” value: -1.72 for the first, -0.328 for the second.

C53U A121G and C53U A121C are within 0.2 log units of each other in “polymerase ribozyme fitness (log ratio)” value: 1.95 for the first, 2.13 for the second.

Going from C53A G69U to C53A G63A G93A, the “polymerase ribozyme fitness (log ratio)” value falls from 1.4 to -1.34.

Compared with C53G U112C, C53A G77U C102U is lower in “polymerase ribozyme fitness (log ratio)” value: 0.934 for the first, -2 for the second.

Going from C53G G69A U78C C97U to C53G U92C, the “polymerase ribozyme fitness (log ratio)” value rises from -2.9 to -1.3.

Compared with C53A G110A, C53U A91C G120C U133C G135U is lower in “polymerase ribozyme fitness (log ratio)” value: -0.6 for the first, -0.968 for the second.

Going from C53G C72G to C53G G63U G122A, the “polymerase ribozyme fitness (log ratio)” value falls from 0.577 to -1.7.

First: C53A G60A C72A A91U U92G C97A C124A
Second: C53U C72A C123A G128U
The “polymerase ribozyme fitness (log ratio)” value of the first is lower: -7.15 for the first, -0.319 for the second.

Going from C53G C72A U81A G120C C123G to C53G C115A, the “polymerase ribozyme fitness (log ratio)” value rises from -1.65 to -0.163.

Going from C53G C64U G110U G128A U133A to C53A C104A, the “polymerase ribozyme fitness (log ratio)” value rises from -5.27 to -1.8.

Going from C53U C72U A111U to C53U C72G C79A, the “polymerase ribozyme fitness (log ratio)” value rises from -3.11 to -1.72.

Compared with C53U C76U, C53G A74G G117A is lower in “polymerase ribozyme fitness (log ratio)” value: -0.497 for the first, -1.73 for the second.

First: C53U A90C C104A A121G C123A
Second: C53G C70G C115G
The “polymerase ribozyme fitness (log ratio)” value of the first is higher: -2.12 for the first, -3.49 for the second.

Going from C53A U78G C80U C123G to C53A U81C U109A G110U U126G, the “polymerase ribozyme fitness (log ratio)” value falls from 0.434 to -5.92.

Going from C53G A119G G128U to C53A G60A A105C, the “polymerase ribozyme fitness (log ratio)” value falls from 0.277 to -2.91.

Going from C53U C72A A91G to C53G C80U G128C, the “polymerase ribozyme fitness (log ratio)” value falls from -1.6 to -2.66.

Going from C53U C72G C104A A121C to C53G U87G C99G C101U G107U G113A, the “polymerase ribozyme fitness (log ratio)” value falls from -0.137 to -7.29.

Compared with C53G G63U, C53A U59C A121G is higher in “polymerase ribozyme fitness (log ratio)” value: -2.05 for the first, 1.49 for the second.
